Data reported in patent US20230233650A1, “NOVEL FATTY ACID MODIFIED UROCORTIN 2 DERIVATIVES AND THE USES THEREOF” (Novo Nordisk A/S, priority 2021, published 2023).
Numbered stars: 1 amine (or outer) side, 2 acyl side, 3 side chain; on linkers, the order of the positions; unused ones are H or OH. Side chains are listed from the residue outwards. Ends that are not written are not given here. * marks the point of attachment. C20 diacid = O=C(O)CCCCCCCCCCCCCCCCCCC(=O)*; γGlu = O=C(O)[C@H](CCC(=O)[*:2])N[*:1]; AEEA = NCCOCCOCC(=O)O

T1: Pro-Link-tagged human CRF2 receptor (human, UniProt Q13324 20-411)
T1 sequence (looked up): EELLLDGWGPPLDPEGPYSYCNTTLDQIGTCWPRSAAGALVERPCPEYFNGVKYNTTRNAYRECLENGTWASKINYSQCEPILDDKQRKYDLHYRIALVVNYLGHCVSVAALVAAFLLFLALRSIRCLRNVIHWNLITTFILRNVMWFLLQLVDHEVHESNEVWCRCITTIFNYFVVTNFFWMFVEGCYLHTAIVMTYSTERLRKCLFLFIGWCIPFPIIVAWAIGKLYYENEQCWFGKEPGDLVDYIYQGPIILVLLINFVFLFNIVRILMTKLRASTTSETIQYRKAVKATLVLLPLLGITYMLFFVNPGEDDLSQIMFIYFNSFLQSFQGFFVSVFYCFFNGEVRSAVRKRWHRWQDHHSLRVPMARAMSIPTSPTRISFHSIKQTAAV

T2: Pro-Link-tagged human CRF1 receptor (human, UniProt P34998 24-415)
T2 sequence (looked up): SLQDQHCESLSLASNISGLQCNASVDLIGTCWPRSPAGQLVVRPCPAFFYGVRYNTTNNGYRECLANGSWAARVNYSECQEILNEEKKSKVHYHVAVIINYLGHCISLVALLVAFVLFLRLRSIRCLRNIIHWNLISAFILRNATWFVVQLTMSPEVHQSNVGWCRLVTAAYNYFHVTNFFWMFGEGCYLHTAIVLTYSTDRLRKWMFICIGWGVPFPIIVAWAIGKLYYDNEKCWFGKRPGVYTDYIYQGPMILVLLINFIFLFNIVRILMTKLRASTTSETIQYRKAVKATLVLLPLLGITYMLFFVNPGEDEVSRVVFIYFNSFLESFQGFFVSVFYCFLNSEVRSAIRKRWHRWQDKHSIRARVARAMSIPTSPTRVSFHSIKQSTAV

T3: Human CRF1 receptor (Corticotropin-Releasing Factor receptor 1) (human, UniProt P34998 24-415)
T3 construct: whole, on cells; also called type 1 CRF receptor
T3 sequence (looked up): T2 sequence (looked up)

T4: Human CRF1 receptor (Corticotropin-Releasing Factor receptor 1) (human), P34998
T4 chain: T2 sequence (looked up)

T5: Human CRF2 receptor (Corticotropin-Releasing Factor receptor 2) (human) (UniProt Q13324)
T5 sequence (looked up): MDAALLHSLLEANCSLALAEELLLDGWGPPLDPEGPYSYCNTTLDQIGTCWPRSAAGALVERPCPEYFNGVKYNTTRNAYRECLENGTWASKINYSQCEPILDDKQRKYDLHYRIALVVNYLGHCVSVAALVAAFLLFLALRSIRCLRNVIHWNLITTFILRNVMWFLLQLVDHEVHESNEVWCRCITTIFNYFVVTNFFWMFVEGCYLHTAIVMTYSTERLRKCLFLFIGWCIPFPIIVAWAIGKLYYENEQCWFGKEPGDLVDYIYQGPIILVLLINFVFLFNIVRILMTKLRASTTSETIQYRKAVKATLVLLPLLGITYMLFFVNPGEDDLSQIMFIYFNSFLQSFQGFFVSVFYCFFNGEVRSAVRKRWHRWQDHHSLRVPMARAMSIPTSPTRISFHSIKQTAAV

B1: Compound 3: N{epsilon}-[C20 diacid-3xgGlu-2xAdo]Lys-[Glu33,Glu37]-hUcn2 (peptide)
peptide: K([AEEA-AEEA-γGlu-γGlu-γGlu-C20 diacid])IVLSLDVPIGLLQILLEQARARAAREQATTNAEILAEV-NH2
modifications: N-terminus assumed
SMILES: CC[C@H](C)[C@H](NC(=O)[C@H](CCC(=O)O)NC(=O)[C@H](C)NC(=O)[C@H](CC(N)=O)NC(=O)[C@@H](NC(=O)[C@@H](NC(=O)[C@H](C)NC(=O)[C@H](CCC(N)=O)NC(=O)[C@H](CCC(=O)O)NC(=O)[C@H](CCCNC(=N)N)NC(=O)[C@H](C)NC(=O)[C@H](C)NC(=O)[C@H](CCCNC(=N)N)NC(=O)[C@H](C)NC(=O)[C@H](CCCNC(=N)N)NC(=O)[C@H](C)NC(=O)[C@H](CCC(N)=O)NC(=O)[C@H](CCC(=O)O)NC(=O)[C@H](CC(C)C)NC(=O)[C@H](CC(C)C)NC(=O)[C@@H](NC(=O)[C@H](CCC(N)=O)NC(=O)[C@H](CC(C)C)NC(=O)[C@H](CC(C)C)NC(=O)CNC(=O)[C@@H](NC(=O)[C@@H]1CCCN1C(=O)[C@@H](NC(=O)[C@H](CC(=O)O)NC(=O)[C@H](CC(C)C)NC(=O)[C@H](CO)NC(=O)[C@H](CC(C)C)NC(=O)[C@@H](NC(=O)[C@@H](NC(=O)[C@@H](N)CCCCNC(=O)COCCOCCNC(=O)COCCOCCNC(=O)CC[C@H](NC(=O)CC[C@H](NC(=O)CC[C@H](NC(=O)CCCCCCCCCCCCCCCCCCC(=O)O)C(=O)O)C(=O)O)C(=O)O)[C@@H](C)CC)C(C)C)C(C)C)[C@@H](C)CC)[C@@H](C)CC)[C@@H](C)O)[C@@H](C)O)C(=O)N[C@@H](CC(C)C)C(=O)N[C@@H](C)C(=O)N[C@@H](CCC(=O)O)C(=O)N[C@H](C(N)=O)C(C)C
B2: Compound 4: N{epsilon}-[C20 diacid-3xgGlu-2xAdo]Lys-[Glu33,Glu36]-hUcn2 (peptide)
peptide: K([AEEA-AEEA-γGlu-γGlu-γGlu-C20 diacid])IVLSLDVPIGLLQILLEQARARAAREQATTNAEILERV-NH2
modifications: N-terminus assumed
SMILES: CC[C@H](C)[C@H](NC(=O)[C@H](CCC(=O)O)NC(=O)[C@H](C)NC(=O)[C@H](CC(N)=O)NC(=O)[C@@H](NC(=O)[C@@H](NC(=O)[C@H](C)NC(=O)[C@H](CCC(N)=O)NC(=O)[C@H](CCC(=O)O)NC(=O)[C@H](CCCNC(=N)N)NC(=O)[C@H](C)NC(=O)[C@H](C)NC(=O)[C@H](CCCNC(=N)N)NC(=O)[C@H](C)NC(=O)[C@H](CCCNC(=N)N)NC(=O)[C@H](C)NC(=O)[C@H](CCC(N)=O)NC(=O)[C@H](CCC(=O)O)NC(=O)[C@H](CC(C)C)NC(=O)[C@H](CC(C)C)NC(=O)[C@@H](NC(=O)[C@H](CCC(N)=O)NC(=O)[C@H](CC(C)C)NC(=O)[C@H](CC(C)C)NC(=O)CNC(=O)[C@@H](NC(=O)[C@@H]1CCCN1C(=O)[C@@H](NC(=O)[C@H](CC(=O)O)NC(=O)[C@H](CC(C)C)NC(=O)[C@H](CO)NC(=O)[C@H](CC(C)C)NC(=O)[C@@H](NC(=O)[C@@H](NC(=O)[C@@H](N)CCCCNC(=O)COCCOCCNC(=O)COCCOCCNC(=O)CC[C@H](NC(=O)CC[C@H](NC(=O)CC[C@H](NC(=O)CCCCCCCCCCCCCCCCCCC(=O)O)C(=O)O)C(=O)O)C(=O)O)[C@@H](C)CC)C(C)C)C(C)C)[C@@H](C)CC)[C@@H](C)CC)[C@@H](C)O)[C@@H](C)O)C(=O)N[C@@H](CC(C)C)C(=O)N[C@@H](CCC(=O)O)C(=O)N[C@@H](CCCNC(=N)N)C(=O)N[C@H](C(N)=O)C(C)C
B3: Compound 1 - hUcn1 (human Urocortin 1 peptide) (peptide)
peptide: DNPSLSIDLTFHLLRTLLELARTQSQRERAEQNRIIFDSV-NH2
notes: also called human Ucn1
B4: Compound 2 - hUcn2 (human Urocortin 2 peptide) (peptide)
peptide: IVLSLDVPIGLLQILLEQARARAAREQATTNARILARV-NH2

Experiments:
[1] = target: T1, Pro-Link-tagged human CRF2 receptor; experiment: cell-based or functional assay
[2] = target: T2, Pro-Link-tagged human CRF1 receptor; experiment: cell-based or functional assay
[3] = target: T3, Human CRF1 receptor …; experiment: SPA, displacement of [125I]-Sauvagine from membranes of CHO-K1 cells expressing the CRF1 receptor
Procedure: Scintillation Proximity Assay: CHO-K1 cells expressing either the CRF₁ receptor or the CRF₂ receptor were obtained from DiscoveRx. Both cell lines were cultured at 37° C. in a humidified atmosphere with 5% CO₂. The culture media used was Ham’s F-12 Nutrient Mix with Glutamax (Gibco) containing 10% fetal bovine serum, 1% Pen/Strep, 800 µg/ml G418 and 300 µg/ml Hygromycin B. Membranes were prepared by the following protocol: cultured cells were washed twice with cold Dulbecco’s phosphate buffered saline and detached using TrypLE™ (ThermoFisher) and transferred to tubes and centrifuged for 5 minutes at 1000 g at +4° C. Pellets were resuspended in ice cold homogenization buffer (20 mM Hepes pH 7.1, 5 mM MgCl₂, 1 mg/ml Bacitracin with 2 complete EDTA-free protease inhibitor cocktail tablets/50 ml (Roche)) and then homogenized for 30 seconds using a Ultra-Turrax T25 tissue homogenizer (IKA) at medium speed. The homogenate was centrifuged at 35,000 g for 15 minutes at +4° C. using an ultracentrifuge, and the supernatant was discarded, and fresh homogenization buffer was added. Homogenization of the pellet was repeated a total of three times. The final pellet was resuspended in a few millilitres of homogenization buffer and protein concentration was determined using the Bradford method. The membrane preparation was transferred to cryotubes, and the aliquots were stored at -80° C. […]

[4] = target: T4, Human CRF1 receptor …; experiment: as above; conditions: remark: other sources report otherwise
[5] = target: T5, Human CRF2 receptor (Corticotropin-Releasing Factor receptor 2) (human); experiment: SPA, displacement of [125I]-Sauvagine from membranes of CHO-K1 cells expressing the CRF2 receptor

Binder | Human CRF2 receptor EC50 [nM] (beta-arrestin recruitment, PathHunter) [1] | Human CRF1 receptor EC50 [nM] (beta-arrestin recruitment, PathHunter) [2] | IC50 [3] [nM] | IC50 [4] [nM] | IC50 [5] [nM]
B1 | 55 | > 10000 | – | – | –
B2 | 42 | > 10000 | – | – | –
B3 | 31 | 22 | 0.07 | – | –
B4 | – | > 10000 | – | 447 | 0.58
